Assay results taken from patent US20240218070A1 (MERUS N V, published 2024).

Columns and labels:
[1] = target: T1, human TGF-βRII expressed on cells (human, UniProt P37173 23-567); assay: cell-based or functional assay
[2] = target: T1, human TGF-βRII expressed on cells; assay: cell-based or functional assay; remark: listed apart in the source

T1 sequence (P37173 23-567 limits assumed, form in doubt): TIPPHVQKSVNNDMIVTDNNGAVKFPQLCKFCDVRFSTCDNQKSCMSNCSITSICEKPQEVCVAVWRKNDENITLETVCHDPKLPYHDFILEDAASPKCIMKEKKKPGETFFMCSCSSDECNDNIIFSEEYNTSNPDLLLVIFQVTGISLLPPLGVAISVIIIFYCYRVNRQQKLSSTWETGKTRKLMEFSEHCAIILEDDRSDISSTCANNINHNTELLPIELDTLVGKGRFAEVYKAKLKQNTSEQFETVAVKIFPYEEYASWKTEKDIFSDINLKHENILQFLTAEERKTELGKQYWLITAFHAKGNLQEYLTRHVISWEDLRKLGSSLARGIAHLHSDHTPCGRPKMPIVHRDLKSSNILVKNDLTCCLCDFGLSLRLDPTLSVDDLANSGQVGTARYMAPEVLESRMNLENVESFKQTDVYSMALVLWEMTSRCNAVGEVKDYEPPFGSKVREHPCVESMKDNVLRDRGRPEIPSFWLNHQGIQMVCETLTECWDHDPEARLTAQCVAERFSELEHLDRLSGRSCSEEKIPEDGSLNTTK

B1: Analog reference TGF-βRII antibody TGF1 (antibody, human IgG1, kappa, V domains shown)
VH: QLQVQESGPGLVKPSETLSLTCTVSGGSISNSYFSWGWIRQPPGKGLEWIGSFYYGEKTYYNPSLKSRATISIDTSKSQFSLKLSSVTAADTAVYYCPRGPTMIRGVIDSWGQGTLVTVSS
VL: EIVLTQSPATLSLSPGERATLSCRASQSVRSYLAWYQQKPGQAPRLLIYDASNRATGIPARFSGSGSGTDFTLTISSLEPEDFAVYYCQQRSNWPPTFGQGTKVEIKR
**Q.** Which results are given for B1?
**A.** IL-11 IC50, TGF-β1-stimulated primary colon CAFs [1]: 0.0526 µg/mL; pSMAD2 IC50, TGF-β1-stimulated primary colon CAFs [1]: 0.00929 ug/ml; Primary CAF IL-11 IC50, BLDA [2]: 1.04 µg/mL; Primary CAF IL-11 IC50, COAD(1) [2]: 1.22 µg/mL; Primary CAF IL-11 IC50, COAD(2) [2]: 0.313 µg/mL; Primary CAF IL-11 IC50, GBM [2]: 0.264 µg/mL; Primary CAF IL-11 IC50, HNSC [2]: 20.2 µg/mL; Primary CAF IL-11 IC50, LUAD [2]: 0.765 µg/mL; Primary CAF IL-11 IC50, LUSC [2]: 0.085 µg/mL; Primary CAF IL-11 IC50, MEL [2]: 0.588 µg/mL; Primary CAF IL-11 IC50, OV [2]: 0.191 µg/mL; Primary CAF IL-11 IC50, PAAD [2]: 0.38 µg/mL; Primary CAF pSMAD IC50, BLDA [2]: 0.087 ug/ml; Primary CAF pSMAD IC50, COAD(1) [2]: 0.081 ug/ml; Primary CAF pSMAD IC50, COAD(2) [2]: 0.023 ug/ml; Primary CAF pSMAD IC50, GBM [2]: 0.048 ug/ml; Primary CAF pSMAD IC50, HNSC [2]: 0.714 ug/ml; Primary CAF pSMAD IC50, LUAD [2]: 0.078 ug/ml; Primary CAF pSMAD IC50, LUSC [2]: 0.125 ug/ml; Primary CAF pSMAD IC50, MEL [2]: 0.117 ug/ml; Primary CAF pSMAD IC50, OV [2]: 0.188 ug/ml; Primary CAF pSMAD IC50, PAAD [2]: 0.126 ug/ml
